According to the DeepSol protein solubility set:

Test: soluble on expression in E. coli; label from the status in PepcDB or PDB records
With “GLVPRGSHMMEILRGSPALSAFRINKLLARFQAANLQVHNIYAEYVHFADLNAPLNDSEQAQLTRLLQYGPALSSHTPAGKLLLVTPRPGTISPWSSKATDIAHNCGLQQVDRLERGVAYYIEASTLTAEQWRQVAAELHDRMMETVFSSLTDAEKLFIHHQPAPVSSVDLLGEGRQALIDANLRLGLALAEDEIDYLQEAFTKLGRNPNDIELYMFAQANSEHCRHKIFNADWIIDGKPQPKSLFKMIKNTFETTPDYVLSAYKDNAAVMEGSAVGRYFADHNTGRYDFHQEPAHILMKVETHNHPTAISPWPGAATGSGGEIRDEGATGRGAKPKAGLVGFSVSNLRIPGFEQPWEEDFGKPERIVTALDIMTEGPLGGAAFNNEFGRPALTGYFRTYEEKVNSHNGEELRGYHKPIMLAGGIGNIRADHVQKGEIVVGAKLIVLGGPAMNIGLGGGAASSMASGQSDADLDFASVQRDNPEMERRCQEVIDRCWQLGDANPILFIHDVGAGGLSNAMPELVSDGGRGGKFELRDILSDEPGMSPLEIWCNESQERYVLAVAADQLPLFDELCKRERAPYAVIGDATEEQHLSLHDNHFDNQPIDLPLDVLLGKTPKMTRDVQTLKAKGDALNRADITIADAVKRVLHLPTVAEKTFLVTIGDRTVTGMVARDQMVGPWQVPVADCAVTTASLDSYYGEAMSIGERAPVALLDFAASARLAVGEALTNIAATQIGDIKRIKLSANWMAAAGHPGEDAGLYDAVKAVGEELCPQLGLTIPVGKDSMSMKTRWQEGNEQREMTSPLSLVISAFARVEDVRHTLTPQLSTEDNALLLIDLGKGHNALGATALAQVYRQLGDKPADVRDVAQLKGFYDAMQALVAARKLLAWHDRSDGGLLVTLAEMAFAGHCGVQVDIAALGDDHLAALFNEELGGVIQVRAEDRDAVEALLAQYGLADCVHYLGQALAGDRFVITANDQTVFSESRTTLRVWWAETTWQMQRLRDNPQCADQEHEAKANDTDPGLNVKLSFDINEDIAAPYIATGARPKVAVLREQGVNSHVEMAAAFHRAGFDAIDVHMSDLLGGRIGLGNFHALVACGGFSYGDVLGAGEGWAKSILFNHRVRDEFETFFHRPQTLALGVCNGCQMMSNLRELIPGSELWPRFVRNHSDRFEARFSLVEVTQSPSLLLQGMVGSQMPIAVSHGEGRVEVRDDAHLAALESKGLVALRYVDNFGKVTETYPANPNGSPNGITAVTTENGRVTIMMPHPERVFRTVANSWHPENWGEDSPWMRIFRNARKQLG” the “soluble on expression in E. coli” value was “soluble”. For “GMAEKQYDFTHVPKRQGNSIKWGVLKEKELPMWIAEMDFKIAPEIMASMEEKLKVAAFGYESVPAEYYKAVADWEEIEHRARPKEDWCVFASGVVPAISAMVRQFTSPGDQILVQEPVYNMFYSVIEGNGRRVISSDLIYENSKYSVNWADLEEKLATPSVRMMVFCNPHNPIGYAWSEEEVKRIAELCAKHQVLLISDEIHGDLVLTDEDITPAFTVDWDAKNWVVSLISPSKTFNLAALHAACAIIPNPDLRARAEESFFLAGIGEPNLLAIPAAIAAYEEGHDWLRELKQVLRDNFAYAREFLAKEVPEVKVLDSNASYLAWVDISALGMNAEDFCKYLREKTGLIISAGNGYRGNGHEFVRINLACPKELVIDGMQRLKQGVLNLNN”, the “soluble on expression in E. coli” value was “soluble”. In the case of “GMAPDQQVPATALGKSSRISLDGRRSERSVILADGSMHSLTLLHPGVYTLSSEVAETIRVLSGMAYYHAEGANDVQELHAGDSMVIPANQSYRLEVMEPLDYLLSS”, the “soluble on expression in E. coli” value was “soluble”. With “GMFTCKVNEHITIRLLEPKDAERLAELIIQNQQRLGKWLFFAENPSSADTYRETIIPDWRRQYADLNGIEAGLLYDGSLCGMISLHNLDQVNRKAEIGYWIAKEFEGKGIITAACRKLITYAFEELELNRVAICAAVGNEKSRAVPERIGFLEEGKARDGLYVNGMHHDLVYYSLLKREWEGEK” the “soluble on expression in E. coli” value was “soluble”. In the case of “GMIPFPESRLAAQMSFVVEIDKLKTILRQTLLTDSSRRENDAEHSWHIATMAFLLAEYADEAVQIGRVARMLLIHDIVEIDAGDTFIHDEAGNEDKEERERKAAARLFGLLPPDQAAEYSALWQEYEARETADARFADALDRLQPLLHNFETEGGTWKPHGVTRAKVDKLLPRIEAGSKRLGAYARALVDEAVRRGYLAP”, the “soluble on expression in E. coli” value was “soluble”. In the case of “GMMNDYLNFLDGRVSVRRFDPDAVLPNDLIKDMLEHASYAPSGNNFQPWRVVVVKNKNKQEDLKKLAALQPQVATASAVFLLFGDENAYDLTWWQEFHVQKGIITKDEAAARAERIRQYFDLHPEDKETQGLRLDVGLFAMNLMQVVRVYGYDSVPMRGVDFDAIKTYLDMPNGWEPILMLPVGKALQAGNPHVRKSVAEFAEIIE”, the “soluble on expression in E. coli” value was “soluble”. In the case of “GMRSNRVTQHPPLQLSLPVHLPDDETFTSYYPAAGNDELIGALKSAASGDGVQAIYLWGPVKSGRTHLIHAACARANELERRSFYIPLGIHASISTALLEGLEQFDLICIDDVDAVAGHPLWEEAIFDLYNRVAEQKRGSLIVSASASPMEAGFVLPDLVSRMHWGLTYQLQPMMDDEKLAALQRRAAMRGLQLPEDVGRFLLNRMARDLRTLFDVLDRLDKASMVHQRKLTIPFVKEMLRL”, the “soluble on expression in E. coli” value was “soluble”. With “GMSNALATLASPADDIAFYEERLRAAMLTGDLKGLETLLADDLAFVDHTGCVKTKQTHLEPYRAGLLKLSRLDLSDAVVRAAGEDGRVVVVRAVTAGVYDGEAFTETLRFTRIWRRTQGPAGWKLVAGHCSVIL” the “soluble on expression in E. coli” value was “soluble”. In the case of “GMSSKEEILSILEAFASTERMGSFFLDNATADFLFIRPSGNPLDAKGFENMWSSGDLVLESAEITKVHKFELLGSNAAICVFTLGSKFTYKGTQNDDLPTVTSIFKKIDEKWKVAWMQRSSGQSDMTLWNE”, the “soluble on expression in E. coli” value was “soluble”. In the case of “GMSTQENVQIVKDFFAAMGRGDKKGLLAVSAEDIEWIIPGEWPLAGTHRGHAALAALLQKASEMVEISYPEPPEFVAQGERVLVVGFATGRVKSTNRTFEDDWVFAITVRKSKVTSIREYIDTLALARATNFNAT”, the “soluble on expression in E. coli” value was “soluble”. With “GMSTSPADTARYNRFVADLFGMMAYGELSAFERFSADARYSPTLHDRAVLGRIAVVEFRHYELVSARLEAMGIDAEDAMLPFQAAVDYFHSRTRPADWYESLMKAYVIDTVSADFYRAISRYVDAGTRDVIEQIQASDETTEVLRERLRSALADDPRLASRLALWGRRLLGEALTQAQRVSYEHAFLGSLIGGEDSAAAKELVSGLIAGLAEKHSKRMTQLGLTG” the “soluble on expression in E. coli” value was “soluble”. In the case of “GMTGFVINTRRAPFDDWRLREALLLAFNFEFINDTVTGGVMPRITSYFSGTDLAYRPGTASGREAELLAPFAADLPPGTLEGYALPQGDGTARNRTNLRRAAQFLEQAGFRIEQGQLLGPDGAPLALRFLLRQGDSDMQTVLEIYTRALERLGIAAQIEKVDNAQYTARVAELDFDLTPFRRDLSLSPGNEQRLYWGSHSAGQPGTRNLMGAASPAIDAMIDRMLAATTEDELTAATRALDRVLTAGRYVIPIWRFD”, the “soluble on expression in E. coli” value was “not soluble”. With “GMTQHITRMRREIDEIPEAVQRLLDHGAQDVARVAAVLRLRDPSFVATVARGSSDHVCTYLSYAAELLLGLPVASLGPSVASVYDARLRLDRALCLAVSQSGKSPDIVAMTRNAGRDGALCVALTNDAASPLAGVSAHTIDIHAGPELSVAATKTFVTSAVAGLMLLADWAEDDGLRAALGNLPETLAAASRIDWPEMRVAIGARPSLFTLGRGTSLAVSNEAALKFKETCQLHAESYSSAEVLHGPVSIVEEGFPVLGFAAGDAAEAPLAEIADQIAAKGATVFATTGRVTRARVLEHVRSGHALTDPLSLIVSFYSMVEAFASERGIDPDAPRHLNKVTETV” the “soluble on expression in E. coli” value was “soluble”. In the case of “GMTRPAHPISRYPVPELAALPDDIRQRILEVQDKAGFVPNVFLTLAHRPDEFRAFFAYHDALMLKDGGLTKGEREMIVVATSAANQCLYCVVAHGAILRIYEKKPLVADQVAVNYLKADIPPRQRAMLDFALKVCKASHEVNEADFEALREHGFTDEDAWDIAAITAFFGLSNRMANTIGMRPNDEFFLMGRVPKSK”, the “soluble on expression in E. coli” value was “soluble”. In the case of “GMTRSEAQGRLTGLAPVSVIDIGSNSVRLVVYEGLSRAPAVLFNEKVLCGLGKGLALTGRMHEEGVTRALMALRRFHVLSEQAQAQKLYVLATAAAREAENGPDFIREAEAILGCEIEVLSGEKEALYSAYGVISGFYQPDGIAGDLGGGSLELIDIKDKSCGEGITLPLGGLRLSEQSDGSLEKAATIARKHVKSFAKLLAAGEGRTFYAVGGTWRNIAKLHMEISGYPLHMMQGYELPLEEMLNFLEEVIVSRDSKDPAWQAVSKNRRSLLPFGAIAMREVLRAMKPAKIAFSAQGVREGYLYSLLTEAERESDPLLVAADELAILRARSPEHARELADWSGRTFPVFGIDETEEESRYRQAACLLADISWRAHPDYRGLQALNIIAHSSFVAITHPGRAYIALANYYRFEGLNDNGTTEPLAAMAGERLQELGKLLGGLLRVVYLFSASMPGVVDHLKFRKSDNPDIDLEFVVPHDYCDFAGERLDGRLQQLAKLTGKRLAFVFE”, the “soluble on expression in E. coli” value was “soluble”. For “GMTYKDYTGLDRTELLSKVRHMMSDKRFNHVLGVERAAIELAERYGYDKEKAGLAALLHDYAKELSDDEFLRLIDKYQPDPDLKKWGNNIWHGLVGIYKIQEDLAIKDQDILAAIAKHTVGSAQMSTLDKIVYVADYIEHNRDFPGVEEARELAKVDLNKAVAYETARTVAFLASKAQPIYPKTIETYNAYIPYLD”, the “soluble on expression in E. coli” value was “soluble”. For “GNIEAALFGLIALYAQTKVIDSIIYGGDAGSMATIVTGNPDGIAAKVIYELDRTATVLPAKGAYSRKDTSVLLCTVRKSQFVKLKRIVYEEDPDAFVMVTETSEVLGLGFRAFKDSL”, the “soluble on expression in E. coli” value was “not soluble”. For “GPALVKQSHPKNPNDKHRSKKCKDPKPRVKKLKYHQYIPPDQKGEKNEPQMDSNYARLLQQQQLFLQLQILSQQKQHYNYQTILPAPFKPLNDKNSNSGNSALNNATPNTPRQNTSTPVRKPGPLPSSLDDLKVSELKTELKLRGLPVSGTKPDLIERLKPYQEVNSSGLAAGGIVAVSSSAIVTSNPEVTVALPVTTLHNTVTSSVSTLKAELPPTGTSNATRVENVHSPLPISPSPSEQSSLSTDDTNMADTFTEIMTMMSPSQFLSSSPLRMTNNEDSLSPTSSTLSNLELDAAEKDRKLQEKEKQIEELKRKLEQEQKLVEVLKMQLEVEKRGQQQRPLEAQPSAPGHSVKSDQKHGSLGSSIKDEASLPDCSSSRQPIPVASHAVGQPVSTGGQTLVAKKAVVIKQEVPVGQAEQQSVVSQFYVSSQGQPPPAVVAQPQALLTTQTAQLLLPVSIQGSSVTSVQLPVGSLKLQTSPQAGMQTQPQIATAAQIPTAALASGLAPTVPQTQDTFPQHVLSQPQQVRKVFTNSASSNTVLPYQRHPAPAVQQPFINKASNSVLQSRNAPLPSLQNGPNTPNKPSSPPPPQQFVVQHSLFGSPVAKTKDPPRYEEAIKQTRSTQAPLPEISNAHSQQMDDLFDILIKSGEISLPIKEEPSPISKMRPVTASITTMPVNTVVSRPPPQVQMAPPVSLEPMGSLSASLENQLEAFLDGTLPSANEIPPLQSSSEDREPFSLIEDLQNDLLSHSGMLDHSHSPMETSETQFAAGTPCLSLDLSDSNLDNMEWLDITMPNSSSGLTPLSTTAPSMFSADFLDPQDLPLPWD”, the “soluble on expression in E. coli” value was “soluble”. With “GPGSMAETRKEEWSEPEVPGGRSEVVAGIKRRREKLELYQSASHKMKALMMNSAGIRSGLGANNELPVNPIWMKFPTRCVKPIHSVEEMREKLHYFSHSDDVMVVRYHQENCTACNALDKTFEFLCHQSADRYPNLKFYEVSKDATPQLTRNLVRYPQVKGFSGGHWTDLEFKPPAEFREELYSGVEREVTRRKREGQPVTALEAEEMYYSSAGPAMAQVLEESVVKFYCKAQARLHNYWKQVSVRRAWFFRKFVEPKVDDQVRDEWRLKSVFGEKLSYGPEPQMEEF” the “soluble on expression in E. coli” value was “not soluble”.
